Consider one molecule from paper PMC12041195 (Nature Communications, 2025).

The target of the test is trimeric HA protein of A/Victoria/361/2011 (H3N2) (Influenza A virus A/Victoria/361/2011 …, UniProt A0A097PF39, strain). Kind of test: negative-stain electron microscopy.

B1: IgM-F045-092 (antibody, V domains shown)
VH: EVQLVESGAEVKKPGSSVKVSCRASGTFYKYAINWVRQAPGQGLEWMGGIIPFFGTTNYAQKFQGRLTITADGSTNTAYMQLDSLRSEDTAVYYCAGPSITESHYCLDCAAKDYYYGLDVWGQGTTVTVSS
VL: not shown
On to B1, for which the binding result is on record as “binds”.
